Laboratory results taken from publication PMC5803212, “Supramolecular aptamer nano-constructs for receptor-mediated targeting and light-triggered release of chemotherapeutics into cancer cells”.

Key:
[1] = biological target: cMet-Fc (HGFR ectodomain fused to human IgG1 Fc) (human) (UniProt P08581); experiment: competition filter binding; details: vs 5'-32P-trCLN3; ~50 nM cMet; four 5'-terminal 5-(1-dodecynyl)-dU (C12 lipid; printed as LLLL, written as UUUU); 1x PBS pH 7.4, 2 mM MgCl2, 0.1 mg/mL E. coli tRNA, 0.25 mg/mL BSA, 37 C, 30 min; ~25 fmol 32P-trCLN3, ~50 nM cMet, 25 uL, nitrocellulose filter
[2] = biological target: cMet-Fc (HGFR ectodomain fused to human IgG1 Fc) (human, UniProt P08581 25-932); experiment: competition filter binding; vs 5'-32P-trCLN3; ~50 nM cMet; 1x PBS pH 7.4, 2 mM MgCl2, 0.1 mg/mL E. coli tRNA, 0.25 mg/mL BSA, 37 C, 30 min; ~25 fmol 32P-trCLN3, ~50 nM cMet, 25 uL, nitrocellulose filter; details: protein: commercial; two predicted intramolecular G-quadruplexes
Sequence of cMet-Fc (HGFR ectodomain fused to human IgG1 Fc) (P08581 25-932): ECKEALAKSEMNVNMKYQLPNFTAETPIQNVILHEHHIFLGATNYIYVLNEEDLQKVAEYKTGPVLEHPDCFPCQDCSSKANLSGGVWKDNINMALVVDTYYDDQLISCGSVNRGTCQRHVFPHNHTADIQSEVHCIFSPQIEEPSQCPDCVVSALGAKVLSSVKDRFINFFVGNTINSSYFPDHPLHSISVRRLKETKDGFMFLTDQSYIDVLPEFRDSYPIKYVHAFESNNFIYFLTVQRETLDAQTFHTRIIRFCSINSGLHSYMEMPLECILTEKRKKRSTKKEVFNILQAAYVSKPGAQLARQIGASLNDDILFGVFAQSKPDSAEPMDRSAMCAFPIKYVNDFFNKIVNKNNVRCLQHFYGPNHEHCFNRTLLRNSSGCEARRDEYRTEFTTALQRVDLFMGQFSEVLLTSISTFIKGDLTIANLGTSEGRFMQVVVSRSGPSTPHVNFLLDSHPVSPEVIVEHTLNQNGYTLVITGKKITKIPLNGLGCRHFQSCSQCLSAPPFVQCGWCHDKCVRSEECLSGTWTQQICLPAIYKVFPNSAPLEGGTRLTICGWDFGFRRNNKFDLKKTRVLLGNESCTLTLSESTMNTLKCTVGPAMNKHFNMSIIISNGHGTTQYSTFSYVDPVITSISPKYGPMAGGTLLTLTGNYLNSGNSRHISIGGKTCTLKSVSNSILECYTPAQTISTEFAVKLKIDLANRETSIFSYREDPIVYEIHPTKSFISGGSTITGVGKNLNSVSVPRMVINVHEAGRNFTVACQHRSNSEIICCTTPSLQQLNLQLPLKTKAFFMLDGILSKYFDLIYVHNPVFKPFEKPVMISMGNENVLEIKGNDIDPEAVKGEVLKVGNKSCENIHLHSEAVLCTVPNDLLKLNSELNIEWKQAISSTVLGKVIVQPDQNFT

Sequence of cMet-Fc (HGFR ectodomain fused to human IgG1 Fc) (human) (P08581 25-932): as above

Row | Molecule | IC50 [1] [nM] | IC50 [2] [nM]
1 | UUUUTGGATGGTAGCTCGGTCGGGGTGGGTGGGTTGGCAAGTCT [trCLN3-L4] | 43 | 
2 | TGGATGGTAGCTCGGTCGGGGTGGGTGGGTTGGCAAGTCT (structured_DNA) [trCLN3] |  | 56
